What was measured:
[1] = biological target: T1, human CD21 on Raji B cells or primary B cells (human, UniProt P20023 21-1033); experiment: Raji B cell binding, flow cytometry
T1 construct: whole, on cells; also called cell-surface human CD21; Raji cells
T1 sequence (looked up): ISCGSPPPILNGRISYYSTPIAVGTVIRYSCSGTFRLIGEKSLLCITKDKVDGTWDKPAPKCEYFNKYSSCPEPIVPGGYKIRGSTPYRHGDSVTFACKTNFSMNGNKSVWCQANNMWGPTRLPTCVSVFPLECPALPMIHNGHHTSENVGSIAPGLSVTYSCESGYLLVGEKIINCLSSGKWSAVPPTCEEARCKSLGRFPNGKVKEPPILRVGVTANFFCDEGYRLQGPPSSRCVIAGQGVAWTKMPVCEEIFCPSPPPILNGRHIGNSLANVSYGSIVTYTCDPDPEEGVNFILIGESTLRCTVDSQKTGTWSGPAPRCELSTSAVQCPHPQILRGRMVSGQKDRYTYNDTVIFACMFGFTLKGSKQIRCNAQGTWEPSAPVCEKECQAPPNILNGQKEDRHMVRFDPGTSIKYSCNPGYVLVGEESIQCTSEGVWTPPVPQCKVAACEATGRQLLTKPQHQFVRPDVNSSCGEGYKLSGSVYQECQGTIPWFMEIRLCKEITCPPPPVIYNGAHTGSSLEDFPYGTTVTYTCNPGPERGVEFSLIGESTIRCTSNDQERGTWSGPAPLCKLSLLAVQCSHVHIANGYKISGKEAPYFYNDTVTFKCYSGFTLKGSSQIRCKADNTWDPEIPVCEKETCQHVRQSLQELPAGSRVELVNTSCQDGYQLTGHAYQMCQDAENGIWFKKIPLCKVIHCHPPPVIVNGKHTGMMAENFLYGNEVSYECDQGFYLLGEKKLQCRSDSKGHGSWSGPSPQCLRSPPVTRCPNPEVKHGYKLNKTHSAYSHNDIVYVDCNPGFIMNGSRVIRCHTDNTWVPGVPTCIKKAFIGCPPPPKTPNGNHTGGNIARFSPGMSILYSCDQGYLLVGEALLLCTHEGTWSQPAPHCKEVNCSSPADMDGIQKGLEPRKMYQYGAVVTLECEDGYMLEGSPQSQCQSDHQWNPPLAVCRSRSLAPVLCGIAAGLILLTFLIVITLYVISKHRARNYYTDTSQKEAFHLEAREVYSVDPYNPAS
Protocol: Ab15 binding to cell-surface human and cyno CD21 was determined using human Raji B cells (ATCC, Manassas, VA) and CHO cells over expressing cyno CD21. Cells expressing cyno CD21 were generated by transfecting CHO cells with a mammalian expression construct encoding full-length cyno CD21. Stable cell clones were selected on hygromycin-B, and their expression of cyno CD21 confirmed by flow cytometry.
For the Ab15 binding experiment, cells were dissociated with cell dissociation buffer (Sigma) and blocked on ice with PBS+3% bovine serum (BS)+human Fc blocker. Cells were stained on ice for 1 hr with 3-fold serially diluted Ab15 (starting from 50 nM), then washed with cold PBS. Secondary antibody (anti-human IgG-PE, 1:500 dilution, Invitrogen, cat. #H10104) was added on ice for 1 hr. Cells were washed with and resuspended in PBS, and analyzed for Ab15 binding on a BD Fortessa instrument.

[2] = biological target: T1, human CD21 on Raji B cells or primary B …; experiment: flow cytometry, competition with biotinylated human C3d on Raji B cells
Protocol: (§1) To measure neutralization of C3d binding to cell-surface CD21 by flow cytometry, human Raji cells and CHO-cyno CD21 cells were used. Cells were dissociated with cell dissociation buffer (Sigma) and blocked on ice with PBS+3% bovine serum albumin (BSA)+human Fc blocker. In a 96-well plate, […] were incubated for 0.5 hr on ice with 3-fold serially diluted Ab15 (starting from 100 nM), then with 4.5 ug/ml biotinylated human C3d. SA-BV451 conjugate (BD Bioscience, cat. #563529) was then added at 0.5 ug/ml for 1 hr on ice. Cells were washed again with cold PBS, resuspended in PBS and analyzed for human C3d binding on a BD Fortessa™.

cyno CD21 on CHO cells = biological target: T2, cyno CD21 on CHO cells (cynomolgus monkey, UniProt A0A2K5URG6 21-1034); experiment: flow cytometry, competition with biotinylated human C3d on CHO-cynoCD21 cells
T2 construct: whole, on cells; also called CHO-cyno CD21 cells; CHO-cynoCD21
T2 sequence: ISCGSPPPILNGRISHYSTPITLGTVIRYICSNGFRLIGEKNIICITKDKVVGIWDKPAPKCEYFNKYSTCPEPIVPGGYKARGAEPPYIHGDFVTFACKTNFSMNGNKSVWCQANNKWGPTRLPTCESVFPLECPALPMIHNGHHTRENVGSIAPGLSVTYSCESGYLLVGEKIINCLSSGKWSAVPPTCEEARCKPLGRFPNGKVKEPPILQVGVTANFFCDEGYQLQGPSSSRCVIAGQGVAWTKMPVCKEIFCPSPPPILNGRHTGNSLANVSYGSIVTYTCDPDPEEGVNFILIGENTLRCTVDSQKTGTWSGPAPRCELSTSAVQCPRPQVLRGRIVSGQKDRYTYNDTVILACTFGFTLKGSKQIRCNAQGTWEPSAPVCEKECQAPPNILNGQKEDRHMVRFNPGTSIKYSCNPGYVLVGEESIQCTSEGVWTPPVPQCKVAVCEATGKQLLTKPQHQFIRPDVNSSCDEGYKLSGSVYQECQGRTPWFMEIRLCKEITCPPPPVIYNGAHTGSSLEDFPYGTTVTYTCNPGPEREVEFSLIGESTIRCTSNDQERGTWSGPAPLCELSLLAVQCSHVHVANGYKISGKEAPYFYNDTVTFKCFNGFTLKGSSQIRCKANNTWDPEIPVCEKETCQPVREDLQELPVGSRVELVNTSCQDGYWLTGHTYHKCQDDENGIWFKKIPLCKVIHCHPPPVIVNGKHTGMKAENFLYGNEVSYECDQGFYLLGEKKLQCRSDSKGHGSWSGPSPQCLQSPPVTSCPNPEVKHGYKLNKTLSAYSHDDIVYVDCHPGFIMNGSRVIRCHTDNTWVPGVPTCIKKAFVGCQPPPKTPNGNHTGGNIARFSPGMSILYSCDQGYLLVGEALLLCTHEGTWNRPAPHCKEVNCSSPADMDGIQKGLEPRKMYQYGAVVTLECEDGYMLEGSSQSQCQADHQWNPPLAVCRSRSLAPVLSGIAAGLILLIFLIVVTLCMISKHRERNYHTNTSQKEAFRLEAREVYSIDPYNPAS
Protocol: as §1

EC50 [1]: 1.38 nM | IC50 [2]: 1.17 nM | IC50 (cyno CD21 on CHO cells): 0.24 nM
B1: Ab15 (antibody, human IgG1, kappa, V domains shown)
VH: QVQLVQSGAEVKKPGSSVKVSCKASGGTFSSYAISWVRQAPGQGLEWMGRIIPILGIANYAQKFQGRVTITADKSTSTAYMELSSLRSEDTAVYYCAREDDSSGYYQDWGQGTLVTVSS
VL: EIVMTQSPATLSLSPGESATLSCRAGQSINSHLAWYQQKPGQSPSLLIYDASTRATGVPARFSGSGFGTEFTLTISSLQSEDFAVYFCQQYEYWYTFGQGTKLEIKR
notes: Tb-labeled in the HTRF assay; also called 36C01; SC38-36C01 (IgG1 version)
